From publication PMC9882672

Target: ferroportin (human (endogenous in HEK 293)) (UniProt Q9NP59)
UniProt Q9NP59, sequence (Q9NP59 whole entry): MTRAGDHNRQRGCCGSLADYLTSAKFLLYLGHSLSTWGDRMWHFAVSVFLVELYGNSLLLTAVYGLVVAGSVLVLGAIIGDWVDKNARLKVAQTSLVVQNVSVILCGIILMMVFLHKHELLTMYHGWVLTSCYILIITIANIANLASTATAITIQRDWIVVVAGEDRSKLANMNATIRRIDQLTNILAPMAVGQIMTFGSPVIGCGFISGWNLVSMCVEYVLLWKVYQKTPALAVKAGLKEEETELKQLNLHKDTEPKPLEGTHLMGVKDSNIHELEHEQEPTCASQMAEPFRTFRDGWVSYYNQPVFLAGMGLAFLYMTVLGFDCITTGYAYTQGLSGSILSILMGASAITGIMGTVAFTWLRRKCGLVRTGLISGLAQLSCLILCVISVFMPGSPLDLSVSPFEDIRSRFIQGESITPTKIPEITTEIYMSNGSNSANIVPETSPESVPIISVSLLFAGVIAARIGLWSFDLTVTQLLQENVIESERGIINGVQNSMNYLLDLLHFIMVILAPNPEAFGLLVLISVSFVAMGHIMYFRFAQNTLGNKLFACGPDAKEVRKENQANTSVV

Row | Substance | membrane Fpn of HEK 293 cells with 500 nM hepcidin for 5 to 60 minutes (membrane protein isolation, immunoblot), decrease compared to holo-Tf treatment [%] | membrane Fpn of HEK 293 cells with 0.25 μM holo-Tf for 5 to 60 minutes (membrane protein isolation, immunoblot), decrease compared to 0 minutes [%]
1 | hepcidin (peptide) | 70 | –
2 | holo (iron bound)-transferrin (from UniProt P02787 20-698) (natural protein) | – | 20
